These are literature values, as cited in paper PMC7876049.

In the data set the target is CYK4 (Homo sapiens) (UniProt Q9H0H5).
Sequence of UniProt Q9H0H5 (Q9H0H5 whole entry): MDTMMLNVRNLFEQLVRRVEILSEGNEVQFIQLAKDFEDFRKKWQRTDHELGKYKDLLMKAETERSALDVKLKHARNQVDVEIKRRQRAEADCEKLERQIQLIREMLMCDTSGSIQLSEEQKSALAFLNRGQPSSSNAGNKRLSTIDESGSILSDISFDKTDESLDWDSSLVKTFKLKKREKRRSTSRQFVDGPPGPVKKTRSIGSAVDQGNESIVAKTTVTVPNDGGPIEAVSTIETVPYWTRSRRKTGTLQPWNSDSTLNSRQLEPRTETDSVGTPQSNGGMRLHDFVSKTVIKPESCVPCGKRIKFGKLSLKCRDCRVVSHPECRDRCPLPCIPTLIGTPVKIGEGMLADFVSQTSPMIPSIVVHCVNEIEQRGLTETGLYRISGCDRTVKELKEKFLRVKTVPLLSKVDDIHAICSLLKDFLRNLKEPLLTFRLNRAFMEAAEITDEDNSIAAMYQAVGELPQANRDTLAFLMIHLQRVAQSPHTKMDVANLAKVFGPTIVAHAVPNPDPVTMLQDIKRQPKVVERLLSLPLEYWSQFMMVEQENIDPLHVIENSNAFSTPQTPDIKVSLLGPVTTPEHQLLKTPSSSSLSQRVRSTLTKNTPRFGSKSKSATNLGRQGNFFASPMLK

For the substance MKLP1 (from UniProt Q02241), the Kd is 7 nM.

For orientation: Kd means the concentration at which binding is half-saturated.
